For the experiment, the system named is P-selectin antibody. In words: SPR antibody binding to oriented versus randomly immobilized P-selectin. To be noted: 20 μg/mL P-selectin antibody, 20 μL/min; compared to randomly immobilized P-selectin, comparable amounts immobilized. The procedure:
Enhanced controllability of surfaces by covalent immobilization: Previously, we have shown the surfaces with covalently immobilized P-selectin present enhanced functional stability by approximately 10 times, as compared to those with physisorbed P-selectin. The surface stability was assessed using cell-mimicking microspheres as well as live neutrophils. We also developed immobilization chemistries (as shown FIG. 5) on gold coated, […] PEGylated surfaces to employ the flow-based SPR technique that quantitatively analyze the surface functions, offering: 1) easy surface functionalization using thiol chemistries due to the presence of a gold layer and 2) quantitative and real time monitoring of binding events without any modification of analytes. Thus, the SPR technique is useful particularly for determining controllability of density and orientation of P-selectin. The chemistries described in FIG. 5 were developed to achieve non-fouling surfaces and to provide reactive sites for subsequent P-selectin immobilization using oligo(ethylene glycol)-alkanethiols (Prochimia, Poland) on gold coated SPR chips. Briefly, the gold chip surface was cleaned before the subsequent formation of mixed self assembled monolayers (SAMs) by washing with absolute ethanol and drying by nitrogen blowing. […]

B1: oriented P-selectin: P-selectin biotinylated at its single cysteine, immobilized through biotin-streptavidin binding on OEG-biotin SAM (protein, UniProt P16109 42-830, looked up)
P-selectin: WTYHYSTKAYSWNISRKYCQNRYTDLVAIQNKNEIDYLNKVLPYYSSYYWIGIRKNNKTWTWVGTKKALTNEAENWADNEPNNKRNNEDCVEIYIKSPSAPGKWNDEHCLKKKHALCYTASCQDMSCSKQGECLETIGNYTCSCYPGFYGPECEYVRECGELELPQHVLMNCSHPLGNFSFNSQCSFHCTDGYQVNGPSKLECLASGIWTNKPPQCLAAQCPPLKIPERGNMTCLHSAKAFQHQSSCSFSCEEGFALVGPEVVQCTASGVWTAPAPVCKAVQCQHLEAPSEGTMDCVHPLTAFAYGSSCKFECQPGYRVRGLDMLRCIDSGHWSAPLPTCEAISCEPLESPVHGSMDCSPSLRAFQYDTNCSFRCAEGFMLRGADIVRCDNLGQWTAPAPVCQALQCQDLPVPNEARVNCSHPFGAFRYQSVCSFTCNEGLLLVGASVLQCLATGNWNSVPPECQAIPCTPLLSPQNGTMTCVQPLGSSSYKSTCQFICDEGYSLSGPERLDCTRSGRWTDSPPMCEAIKCPELFAPEQGSLDCSDTRGEFNVGSTCHFSCDNGFKLEGPNNVECTTSGRWSATPPTCKGIASLPTPGVQCPALTTPGQGTMYCRHHPGTFGFNTTCYFGCNAGFTLIGDSTLSCRPSGQWTAVTPACRAVKCSELHVNKPIAMNCSNLWGNFSYGSICSFHCLEGQLLNGSAQTACQENGHWSTTVPTCQAGPLTIQEALTYFGGAVASTIGLIMGGTLLALLRKRFRQKDDGKCPLNPHSHLGTYGVFTNAAFDPSP
modifications: biotinylated at cysteine
On to B1, for which the antibody binding response result was “significantly greater binding response”.

The values above are taken from patent publication US9964541B2, “Method and devices for capturing circulating tumor” (THE BOARD OF TRUSTEES OF THE UNIVERSITY OF ILLINOIS, priority 2009, dated 2018).
